The record followed here is paper PMC9054013 (2022).

Common to all, as to assay: ITC
A general note: ITC needs no label: the signal is the heat of the interaction.

One assay deals with FCHO2-N1+N2 E336A+F339S (human, UniProt Q0JRZ9-1 314-394, E336A | F339S).
The next assay deals with FCHO2-N1+N2 EEK mutant (human, UniProt Q0JRZ9-1 314-394, E320S | E321S | K326S).
Assay [1] has as its target AP2 α-appendage (residues 695 to 938) (UniProt P17427 695-938).

Broadly, the Kd is the constant that tells how readily two partners part at equilibrium.

Chain of AP2 α-appendage (residues 695 to 938) (P17427 695-938): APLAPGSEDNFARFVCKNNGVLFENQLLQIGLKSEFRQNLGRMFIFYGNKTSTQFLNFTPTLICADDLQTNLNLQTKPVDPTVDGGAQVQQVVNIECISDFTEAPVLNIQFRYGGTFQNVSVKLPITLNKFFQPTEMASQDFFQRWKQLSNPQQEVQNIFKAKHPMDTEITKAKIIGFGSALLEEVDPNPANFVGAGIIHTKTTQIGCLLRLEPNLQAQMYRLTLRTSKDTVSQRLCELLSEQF

B1: Cμ2 (μ2 residues 160 to 435) (domain or fragment)
chain: GWRREGIKYRRNELFLDVLESVNLLMSPQGQVLSAHVSGRVVMKSYLSGMPECKFGMNDKIVIEKQGKGTADETSKSGKQSIAIDDCTFHQCVRLSKFDSERSISFIPPDGEFELMRYRTTKDIILPFRVIPLVREVGRTKLEVKVVIKSNFKPSLLAQKIEVRIPTPLNTSGVQVICMKGKAKYKASENAIVWKIKRMAGMKESQISAEIELLPTNDKKKWARPPISMNFEVPFAPSGLKVRYLKVFEPKLNYSDHDVIKWVRYIGRSGIYETRC
For B1, the Kd in the assay with FCHO2-N1+N2 E336A+F339S stood at 55 µM; in the assay with FCHO2-N1+N2 EEK mutant it was 110 µM.

Molecule QSEEQVSKNLFGPPLESAFDHED [FCHO1 C peptide (residues 426 to 448)] registered a Kd in assay [1] of 44 µM.
